For seven molecules, Drug metabolism, Km and Vmax results are on record in ChEMBL document CHEMBL3525955, “Glucuronidation of the red clover isoflavone irilone by liver microsomes from different species and human UDP-glucuronosyltransferases” (Drug Metab Dispos, 2011).

Common to all, as to format: ADME
The target in series [1] is T1, UDP-glucuronosyltransferase 1A1 (Homo sapiens, UniProt P22309).
T1 sequence (P22309 whole entry): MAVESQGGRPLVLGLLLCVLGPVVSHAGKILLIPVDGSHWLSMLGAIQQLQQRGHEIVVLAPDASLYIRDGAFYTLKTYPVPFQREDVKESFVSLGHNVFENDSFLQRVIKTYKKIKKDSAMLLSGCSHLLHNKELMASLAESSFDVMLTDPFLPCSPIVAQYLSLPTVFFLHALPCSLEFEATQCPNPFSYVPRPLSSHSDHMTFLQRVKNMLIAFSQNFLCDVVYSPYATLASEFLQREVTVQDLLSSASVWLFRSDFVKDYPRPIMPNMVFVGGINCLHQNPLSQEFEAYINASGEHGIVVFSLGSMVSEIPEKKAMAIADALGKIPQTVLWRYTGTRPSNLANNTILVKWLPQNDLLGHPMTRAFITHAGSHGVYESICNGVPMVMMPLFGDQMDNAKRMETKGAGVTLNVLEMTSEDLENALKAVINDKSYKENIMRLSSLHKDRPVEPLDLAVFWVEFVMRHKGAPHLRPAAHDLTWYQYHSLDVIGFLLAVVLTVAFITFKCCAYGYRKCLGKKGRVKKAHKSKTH
The series can be described thus: Drug level assessed as human recombinant UGT1A1-mediated glucuronidation treated with 25 uM irilone incubated for 5 mins prior to UDPGA addition measured after 90 mins by HPLC-DAD analysis. The conditions noted are these: recombinant enzyme, 1.5 h.

For series [2], the target named is T2, UDP-glucuronosyltransferase 1A7 (Homo sapiens, UniProt Q9HAW7).
T2 sequence (Q9HAW7 whole entry): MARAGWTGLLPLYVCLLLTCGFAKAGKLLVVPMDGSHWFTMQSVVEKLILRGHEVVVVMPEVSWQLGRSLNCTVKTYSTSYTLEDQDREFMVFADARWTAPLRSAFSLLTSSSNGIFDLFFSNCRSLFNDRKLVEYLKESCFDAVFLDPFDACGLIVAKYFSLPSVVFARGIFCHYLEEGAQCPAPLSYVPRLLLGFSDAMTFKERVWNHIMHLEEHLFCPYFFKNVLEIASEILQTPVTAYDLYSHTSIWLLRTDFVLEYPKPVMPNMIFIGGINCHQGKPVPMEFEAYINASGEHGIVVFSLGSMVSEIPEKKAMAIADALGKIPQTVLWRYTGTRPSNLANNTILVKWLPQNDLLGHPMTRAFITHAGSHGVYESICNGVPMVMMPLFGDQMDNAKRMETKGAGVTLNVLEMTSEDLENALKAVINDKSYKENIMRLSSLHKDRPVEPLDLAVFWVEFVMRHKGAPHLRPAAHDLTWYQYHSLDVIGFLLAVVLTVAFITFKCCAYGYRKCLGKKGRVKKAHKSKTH
The series can be described thus: Drug level assessed as human recombinant UGT1A7-mediated glucuronidation treated with 25 uM irilone incubated for 5 mins prior to UDPGA addition measured after 90 mins by HPLC-DAD analysis. The conditions noted are these: recombinant enzyme, 1.5 h.

The target in series [3] is T3, UDP-glucuronosyltransferase 1A10 (Homo sapiens, UniProt Q9HAW8).
T3 sequence (Q9HAW8 whole entry): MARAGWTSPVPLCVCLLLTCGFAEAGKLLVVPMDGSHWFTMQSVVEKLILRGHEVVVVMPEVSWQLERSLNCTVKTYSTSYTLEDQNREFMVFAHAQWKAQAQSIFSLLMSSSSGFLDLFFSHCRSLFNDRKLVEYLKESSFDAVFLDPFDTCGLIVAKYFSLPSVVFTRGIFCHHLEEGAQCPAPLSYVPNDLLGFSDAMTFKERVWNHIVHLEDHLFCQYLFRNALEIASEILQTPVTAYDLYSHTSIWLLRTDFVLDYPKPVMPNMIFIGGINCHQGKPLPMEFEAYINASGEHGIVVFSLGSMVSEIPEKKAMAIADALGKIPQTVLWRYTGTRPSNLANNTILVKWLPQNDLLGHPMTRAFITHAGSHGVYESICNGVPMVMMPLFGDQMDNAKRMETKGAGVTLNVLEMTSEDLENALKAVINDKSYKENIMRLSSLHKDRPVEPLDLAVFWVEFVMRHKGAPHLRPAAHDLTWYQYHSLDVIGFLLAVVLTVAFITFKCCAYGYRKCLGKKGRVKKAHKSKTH
The series can be described thus: Drug level assessed as human recombinant UGT1A10-mediated glucuronidation treated with irilone incubated for 5 mins prior to UDPGA addition measured after 90 mins by HPLC-DAD analysis. The conditions noted are these: recombinant enzyme, 1.5 h.

Series [4] concerns the target T4, UDP-glucuronosyltransferase 1A8 (Homo sapiens, UniProt Q9HAW9).
T4 sequence (Q9HAW9 whole entry): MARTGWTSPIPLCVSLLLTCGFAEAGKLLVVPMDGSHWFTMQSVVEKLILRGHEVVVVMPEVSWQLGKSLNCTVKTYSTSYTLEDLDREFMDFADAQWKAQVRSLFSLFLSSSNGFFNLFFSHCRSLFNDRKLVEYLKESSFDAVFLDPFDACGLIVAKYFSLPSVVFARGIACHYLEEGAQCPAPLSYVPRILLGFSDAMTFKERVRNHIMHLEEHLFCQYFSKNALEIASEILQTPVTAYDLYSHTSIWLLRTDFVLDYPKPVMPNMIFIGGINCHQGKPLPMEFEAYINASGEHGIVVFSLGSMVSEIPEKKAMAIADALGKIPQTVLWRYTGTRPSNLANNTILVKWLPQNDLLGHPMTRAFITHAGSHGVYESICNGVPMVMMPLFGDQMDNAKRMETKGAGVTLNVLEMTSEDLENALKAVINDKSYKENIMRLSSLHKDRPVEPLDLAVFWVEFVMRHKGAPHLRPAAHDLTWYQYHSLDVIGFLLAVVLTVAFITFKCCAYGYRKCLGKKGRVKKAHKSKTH
The series can be described thus: Drug level assessed as human recombinant UGT1A8-mediated glucuronidation treated with 25 uM irilone incubated for 5 mins prior to UDPGA addition measured after 90 mins by HPLC-DAD analysis. The conditions noted are these: recombinant enzyme, 1.5 h.

Substrate in series [5]: O=c1c(-c2ccc(O)cc2)coc2cc3c(c(O)c12)OCO3
In words: Activity of human recombinant UGT1A7 assessed as IRI-O-5-monoglucuronide formation incubated for 5 mins prior to UDPGA addition measured after 90 mins by Eadie-Hoftsee plot analysis.

Substrate in series [6]: O=c1c(-c2ccc(O)cc2)coc2cc3c(c(O)c12)OCO3
The series can be described thus: Activity of human recombinant UGT1A1 assessed as IRI-O-5-monoglucuronide formation incubated for 5 mins prior to UDPGA addition measured after 90 mins by Eadie-Hoftsee plot analysis.

Substrate in series [7]: O=c1c(-c2ccc(O)cc2)coc2cc3c(c(O)c12)OCO3
In words: Activity of human recombinant UGT1A1 assessed as IRI-O-4'-monoglucuronide formation incubated for 5 mins prior to UDPGA addition measured after 90 mins by Eadie-Hoftsee plot analysis.

Substrate in series [8]: O=c1c(-c2ccc(O)cc2)coc2cc3c(c(O)c12)OCO3
In words: Activity of human recombinant UGT1A9 assessed as IRI-O-5-monoglucuronide formation incubated for 5 mins prior to UDPGA addition measured after 90 mins by Eadie-Hoftsee plot analysis.

Substrate in series [9]: O=c1c(-c2ccc(O)cc2)coc2cc3c(c(O)c12)OCO3
In words: Activity of human recombinant UGT1A10 assessed as IRI-O-4'-monoglucuronide formation incubated for 5 mins prior to UDPGA addition measured after 90 mins by Eadie-Hoftsee plot analysis.

Substrate in series [10]: O=c1c(-c2ccc(O)cc2)coc2cc3c(c(O)c12)OCO3
The series can be described thus: Activity of human recombinant UGT1A8 assessed as IRI-O-4'-monoglucuronide formation incubated for 5 mins prior to UDPGA addition measured after 90 mins by Eadie-Hoftsee plot analysis.

Substrate in series [11]: O=c1c(-c2ccc(O)cc2)coc2cc3c(c(O)c12)OCO3
In words: Activity of human recombinant UGT1A8 assessed as IRI-O-5-monoglucuronide formation incubated for 5 mins prior to UDPGA addition measured after 90 mins by Eadie-Hoftsee plot analysis.

Take `O=C(O)[C@H]1O[C@@H](Oc2ccc(-c3coc4cc5c(c(O)c4c3=O)OCO5)cc2)[C@H](O)[C@@H](O)[C@@H]1O`: the Drug metabolism result in [1], in series [2], in series [3] and in series [4] was “metabolite_detected” in each case.

With `COc1c2c(cc3occ(-c4ccc(O[C@@H]5O[C@H](C(=O)O)[C@@H](O)[C@H](O)[C@H]5O)cc4)c(=O)c13)OCO2`, the Drug metabolism entry in series [3] is “metabolite_detected”.

B1: UDP-glucuronosyltransferase 1A7 (Homo sapiens) (protein)
chain: MARAGWTGLLPLYVCLLLTCGFAKAGKLLVVPMDGSHWFTMQSVVEKLILRGHEVVVVMPEVSWQLGRSLNCTVKTYSTSYTLEDQDREFMVFADARWTAPLRSAFSLLTSSSNGIFDLFFSNCRSLFNDRKLVEYLKESCFDAVFLDPFDACGLIVAKYFSLPSVVFARGIFCHYLEEGAQCPAPLSYVPRLLLGFSDAMTFKERVWNHIMHLEEHLFCPYFFKNVLEIASEILQTPVTAYDLYSHTSIWLLRTDFVLEYPKPVMPNMIFIGGINCHQGKPVPMEFEAYINASGEHGIVVFSLGSMVSEIPEKKAMAIADALGKIPQTVLWRYTGTRPSNLANNTILVKWLPQNDLLGHPMTRAFITHAGSHGVYESICNGVPMVMMPLFGDQMDNAKRMETKGAGVTLNVLEMTSEDLENALKAVINDKSYKENIMRLSSLHKDRPVEPLDLAVFWVEFVMRHKGAPHLRPAAHDLTWYQYHSLDVIGFLLAVVLTVAFITFKCCAYGYRKCLGKKGRVKKAHKSKTH
In the case of B1, in [5], the Km is 9.4 µM and the Vmax worked out at 4e-05 µmol/min/mg.

B2: UDP-glucuronosyltransferase 1A1 (Homo sapiens) (protein)
chain: MAVESQGGRPLVLGLLLCVLGPVVSHAGKILLIPVDGSHWLSMLGAIQQLQQRGHEIVVLAPDASLYIRDGAFYTLKTYPVPFQREDVKESFVSLGHNVFENDSFLQRVIKTYKKIKKDSAMLLSGCSHLLHNKELMASLAESSFDVMLTDPFLPCSPIVAQYLSLPTVFFLHALPCSLEFEATQCPNPFSYVPRPLSSHSDHMTFLQRVKNMLIAFSQNFLCDVVYSPYATLASEFLQREVTVQDLLSSASVWLFRSDFVKDYPRPIMPNMVFVGGINCLHQNPLSQEFEAYINASGEHGIVVFSLGSMVSEIPEKKAMAIADALGKIPQTVLWRYTGTRPSNLANNTILVKWLPQNDLLGHPMTRAFITHAGSHGVYESICNGVPMVMMPLFGDQMDNAKRMETKGAGVTLNVLEMTSEDLENALKAVINDKSYKENIMRLSSLHKDRPVEPLDLAVFWVEFVMRHKGAPHLRPAAHDLTWYQYHSLDVIGFLLAVVLTVAFITFKCCAYGYRKCLGKKGRVKKAHKSKTH
Regarding B2, in series [6], the Km was 24.6 µM and the Vmax was 0.00067 µmol/min/mg. In addition, in series [7], the Km was 32.9 µM and the Vmax amounted to 0.00014 µmol/min/mg.

B3: UDP-glucuronosyltransferase 1A9 (Homo sapiens) (protein)
chain: MACTGWTSPLPLCVCLLLTCGFAEAGKLLVVPMDGSHWFTMRSVVEKLILRGHEVVVVMPEVSWQLGRSLNCTVKTYSTSYTLEDLDREFKAFAHAQWKAQVRSIYSLLMGSYNDIFDLFFSNCRSLFKDKKLVEYLKESSFDAVFLDPFDNCGLIVAKYFSLPSVVFARGILCHYLEEGAQCPAPLSYVPRILLGFSDAMTFKERVRNHIMHLEEHLLCHRFFKNALEIASEILQTPVTEYDLYSHTSIWLLRTDFVLDYPKPVMPNMIFIGGINCHQGKPLPMEFEAYINASGEHGIVVFSLGSMVSEIPEKKAMAIADALGKIPQTVLWRYTGTRPSNLANNTILVKWLPQNDLLGHPMTRAFITHAGSHGVYESICNGVPMVMMPLFGDQMDNAKRMETKGAGVTLNVLEMTSEDLENALKAVINDKSYKENIMRLSSLHKDRPVEPLDLAVFWVEFVMRHKGAPHLRPAAHDLTWYQYHSLDVIGFLLAVVLTVAFITFKCCAYGYRKCLGKKGRVKKAHKSKTH
In the case of B3, in [8], the Michaelis constant (Km) came out at 5 µM and the Vmax is 0.00027 µmol/min/mg.

B4: UDP-glucuronosyltransferase 1A10 (Homo sapiens) (protein)
chain: MARAGWTSPVPLCVCLLLTCGFAEAGKLLVVPMDGSHWFTMQSVVEKLILRGHEVVVVMPEVSWQLERSLNCTVKTYSTSYTLEDQNREFMVFAHAQWKAQAQSIFSLLMSSSSGFLDLFFSHCRSLFNDRKLVEYLKESSFDAVFLDPFDTCGLIVAKYFSLPSVVFTRGIFCHHLEEGAQCPAPLSYVPNDLLGFSDAMTFKERVWNHIVHLEDHLFCQYLFRNALEIASEILQTPVTAYDLYSHTSIWLLRTDFVLDYPKPVMPNMIFIGGINCHQGKPLPMEFEAYINASGEHGIVVFSLGSMVSEIPEKKAMAIADALGKIPQTVLWRYTGTRPSNLANNTILVKWLPQNDLLGHPMTRAFITHAGSHGVYESICNGVPMVMMPLFGDQMDNAKRMETKGAGVTLNVLEMTSEDLENALKAVINDKSYKENIMRLSSLHKDRPVEPLDLAVFWVEFVMRHKGAPHLRPAAHDLTWYQYHSLDVIGFLLAVVLTVAFITFKCCAYGYRKCLGKKGRVKKAHKSKTH
As to B4, in [9], the Km is 10.3 µM and the Vmax worked out at 0.00103 µmol/min/mg.

B5: UDP-glucuronosyltransferase 1A8 (Homo sapiens) (protein)
chain: MARTGWTSPIPLCVSLLLTCGFAEAGKLLVVPMDGSHWFTMQSVVEKLILRGHEVVVVMPEVSWQLGKSLNCTVKTYSTSYTLEDLDREFMDFADAQWKAQVRSLFSLFLSSSNGFFNLFFSHCRSLFNDRKLVEYLKESSFDAVFLDPFDACGLIVAKYFSLPSVVFARGIACHYLEEGAQCPAPLSYVPRILLGFSDAMTFKERVRNHIMHLEEHLFCQYFSKNALEIASEILQTPVTAYDLYSHTSIWLLRTDFVLDYPKPVMPNMIFIGGINCHQGKPLPMEFEAYINASGEHGIVVFSLGSMVSEIPEKKAMAIADALGKIPQTVLWRYTGTRPSNLANNTILVKWLPQNDLLGHPMTRAFITHAGSHGVYESICNGVPMVMMPLFGDQMDNAKRMETKGAGVTLNVLEMTSEDLENALKAVINDKSYKENIMRLSSLHKDRPVEPLDLAVFWVEFVMRHKGAPHLRPAAHDLTWYQYHSLDVIGFLLAVVLTVAFITFKCCAYGYRKCLGKKGRVKKAHKSKTH
In the case of B5, in series [10], the Km is 87.5 µM and the maximum rate (Vmax) is 0.00054 µmol/min/mg. In addition, in series [11], the Km was 70.9 µM and the Vmax amounted to 0.001 µmol/min/mg.

By Km is commonly meant the concentration of substrate that gives half-maximal velocity. Broadly, the Vmax is the rate approached at saturating substrate.
